Measurements reported in patent US20240247080A1, “GLP1/GIP/NPY2 RECEPTOR TRIPLE AGONISTS” (Boehringer Ingelheim International GmbH, priority 2022, published 2024).
Starred links: 1 amine or outer side, 2 acyl side, 3 side chain; linkers in the order of their positions; H or OH if unused. Non-standard residues stand in square brackets, D forms with d. Groups on a side chain read outwards from the residue. No end group written: not given here. *: point of attachment. C20 diacid = O=C(O)CCCCCCCCCCCCCCCCCCC(=O)*; C18 diacid = O=C(O)CCCCCCCCCCCCCCCCC(=O)*; γGlu = O=C(O)[C@H](CCC(=O)[*:2])N[*:1]; εLys = N[C@@H](CCCCN[*:1])C(=O)[*:2]; AEEA = NCCOCCOCC(=O)O; Aib = CC(C)(N)C(=O)O

T1: human neuropeptide Y2 (NPY2) receptor (human, UniProt P49146 1-381)
T1 sequence (looked up): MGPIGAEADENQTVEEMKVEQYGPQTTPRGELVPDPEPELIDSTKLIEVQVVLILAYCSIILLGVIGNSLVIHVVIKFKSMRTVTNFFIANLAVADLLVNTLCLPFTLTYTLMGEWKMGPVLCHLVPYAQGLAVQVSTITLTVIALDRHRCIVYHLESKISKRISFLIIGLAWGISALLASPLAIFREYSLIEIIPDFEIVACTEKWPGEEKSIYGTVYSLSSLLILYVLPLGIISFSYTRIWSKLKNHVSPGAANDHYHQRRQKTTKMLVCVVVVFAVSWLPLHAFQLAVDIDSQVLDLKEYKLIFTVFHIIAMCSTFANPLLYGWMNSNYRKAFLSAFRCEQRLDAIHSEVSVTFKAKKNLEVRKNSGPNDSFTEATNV

T2: human GIP receptor (human, UniProt P48546 22-466)
T2 sequence (looked up): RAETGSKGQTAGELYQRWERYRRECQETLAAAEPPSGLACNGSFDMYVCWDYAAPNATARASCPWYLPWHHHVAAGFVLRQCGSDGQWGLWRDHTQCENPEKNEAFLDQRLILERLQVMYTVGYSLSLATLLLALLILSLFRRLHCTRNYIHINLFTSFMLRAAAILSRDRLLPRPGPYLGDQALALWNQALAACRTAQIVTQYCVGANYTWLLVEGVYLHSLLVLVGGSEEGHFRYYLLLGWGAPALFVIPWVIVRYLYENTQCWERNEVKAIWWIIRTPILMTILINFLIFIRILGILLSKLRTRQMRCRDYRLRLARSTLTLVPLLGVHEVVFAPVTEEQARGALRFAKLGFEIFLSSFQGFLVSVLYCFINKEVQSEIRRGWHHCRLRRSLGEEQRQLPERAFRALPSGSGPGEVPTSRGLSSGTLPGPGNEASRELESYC


Assays:
Assay in all cases: cell-based or functional assay
[1] = molecular target: T1, human neuropeptide Y2 (NPY2) receptor
human GLP-1 receptor = human GLP-1 receptor (human, UniProt P43220 24-463)
human GIP receptor = molecular target: T2, human GIP receptor

EC50, CreLuc assay, 0.5% hP [1]	EC50, CreLuc assay, 100% hP [1]	EC50, CreLuc assay, 0.5% hP (human GLP-1 receptor)	EC50, CreLuc assay, 100% hP (human GLP-1 receptor)	EC50, CreLuc assay, 0.5% hP (human GIP receptor)	EC50, CreLuc assay, 100% hP (human GIP receptor)	Binder
11.1 nM	36.4 nM	0.6 nM	15.4 nM	0.27 nM	1.79 nM	Y[Aib]EGTFTSDYSI[Aib]LEKQAQ[Aib]EFVEWLIK([AEEA-AEEA-γGlu-γGlu-γGlu-C18 diacid])GGPESGASLRHYYNWLTRQRY-NH2 (also: TFA salt) [Compound 81]
16.2 nM	67.2 nM	0.3 nM	22.2 nM	0.28 nM	2.62 nM	Y[Aib]EGTFTSDYSI[Aib]LEKQAQ[Aib]AFVEWLIK([εLys-γGlu-γGlu-γGlu-γGlu-γGlu-C20 diacid])GGPESPASLRHYYNWLTRQRY-NH2 (also: TFA salt) [Compound 70]
7.12 nM	33.5 nM	0.35 nM	23.9 nM	0.54 nM	12.4 nM	Y[Aib]EGTFTSDYSI[Aib]LEKQAQ[Aib]AFVEWLIK([εLys-Glu-γGlu-γGlu-γGlu-γGlu-C20 diacid])GGPSYYVSLRHYYNWLTRQRY-NH2 (also: TFA salt) [Compound 75]
18.8 nM	85.6 nM	0.24 nM	11.6 nM	0.64 nM	3.06 nM	YXEGTFTSDYSIXLEEEAQXAFVEWLIKGGPSSGASLRHYYNWLTRQRY (Aib at 2, 13, 20; K28 side chain: C20DA-gGlu-gGlu-gGlu-gGlu-gGlu-gGlu-eLys; C-terminal NH2) [Compound 66]
12.9 nM	24.6 nM	0.64 nM	12.2 nM	0.53 nM	6.64 nM	YXEGTFTSDYSIXLEKQAQXAFVQWLIKGGPSEYVSLRHYYNWLTRQRY (Aib at 2, 13, 20; K28 side chain: C20DA-gGlu-gGlu-gGlu-gGlu-gGlu-gGlu-eLys; C-terminal NH2) [Compound 78]
53.4 nM	110 nM	0.08 nM	1.13 nM	0.1 nM	0.62 nM	YXEGTFTSDYSIXLEKQAQXAFVEWLIKGGPSSGASXRHYYNWLTRQRY (Aib at 2, 13, 20, 37; DTyr 49; K28 side chain: C20DA-gGlu-gGlu-gGlu-gGlu-gGlu-gGlu-eLys; C-terminal NH2) [Compound 74]
15.2 nM	18.9 nM	0.46 nM	6.64 nM	0.21 nM	2.03 nM	YXEGTFTSDYSIXLEKQAQXAFVEWLIKGGPSSYVSIRHYYNWLTRQRY (Aib at 2, 13, 20; K28 side chain: C20DA-gGlu-gGlu-gGlu-gGlu-gGlu-gGlu-eLys; C-terminal NH2) [Compound 9]
12.8 nM	54.8 nM	1.6 nM	16.3 nM	0.79 nM	6.76 nM	YXEGTFTSDYSIXLEKQAQXAFVEWLIKGGPSYYVSLRHYYNWLTRQRY (Aib at 2, 13, 20; K28 side chain: C20DA-gGlu-gGlu-gGlu-gGlu-gGlu-gGlu-eLys; C-terminal NH2) [Compound 80]
28.8 nM	80.6 nM	0.17 nM	2.87 nM	0.13 nM	1.06 nM	YXEGTFTSDYSIXLEKQAQXAFVEWLIKGGPSSGASLRHYYNWLTRQRY (Aib at 2, 13, 20; NMeR 48; K28 side chain: C20DA-gGlu-gGlu-gGlu-gGlu-gGlu-gGlu-eLys; C-terminal NH2) [Compound 83]
8.31 nM	35.2 nM	0.13 nM	2.63 nM	0.23 nM	1.43 nM	YXEGTFTSDYSIXLEKQAQXAFVEWLIKGGPSSGQSLRHYYNWLTRQRY (Aib at 2, 13, 20; K28 side chain: C20DA-gGlu-gGlu-gGlu-gGlu-gGlu-gGlu-eLys; C-terminal NH2) [Compound 84]

Continued, binder first:

Binder	EC50, CreLuc assay, 0.5% hP [1]	EC50, CreLuc assay, 100% hP [1]	EC50, CreLuc assay, 0.5% hP (human GLP-1 receptor)	EC50, CreLuc assay, 100% hP (human GLP-1 receptor)	EC50, CreLuc assay, 0.5% hP (human GIP receptor)	EC50, CreLuc assay, 100% hP (human GIP receptor)
Y[Aib]EGTFTSDYSI[Aib]LEKQAQ[Aib]AFVQWLIK([AEEA-AEEA-γGlu-γGlu-γGlu-γGlu-C20 diacid])GGPEEPASLRHYYNWLTRQRY-NH2 (also: TFA salt) [Compound 77]	13.7 nM	46.3 nM	0.24 nM	16.2 nM	0.32 nM	2.16 nM
Y[Aib]EGTFTSDYSI[Aib]LEKQAQ[Aib]AFVQWLIK([εLys-γGlu-γGlu-γGlu-γGlu-γGlu-C20 diacid])GGPEEPASLRHYYNWLTRQRY-NH2 (also: TFA salt) [Compound 67]	13.7 nM	78.9 nM	0.38 nM	27.4 nM	0.29 nM	6.18 nM
YXEGTFTSDYSIXLEKQAQXAFVEWLIKGGPSSGIELRHFLNHLTRQRY (Aib at 2, 13, 20; K28 side chain: C20DA-gGlu-gGlu-gGlu-gGlu-gGlu-gGlu-eLys; C-terminal NH2) [Compound 2]	> 100 nM	564 nM	0.1 nM	1.39 nM	0.35 nM	1.56 nM
YXEGTFTSDYSIXLEEQAQXAFVQWLIKGGPSSGQSLRHYYNWLTRQRY (Aib at 2, 13, 20; K28 side chain: C20DA-gGlu-Glu-gGlu-gGlu-gGlu-gGlu-eLys; C-terminal NH2) [Compound 8]	11.6 nM	43 nM	0.04 nM	1.05 nM	0.12 nM	1.72 nM
YXEGTFTSDYSIXLEKQAQXAFVEWLIKGGPSSGASLRHYYNWLTRQRY (Aib at 2, 13, 20; NMeQ 47; K28 side chain: C20DA-gGlu-gGlu-gGlu-gGlu-gGlu-gGlu-eLys; C-terminal NH2) [Compound 85]	10.3 nM	34.4 nM	0.15 nM	2.75 nM	0.22 nM	1.11 nM
YXEGTFTSDYSIXLEKQAQXAFVEWLIKGGPSSGADLRHYLNWLTRQRY (Aib at 2, 13, 20; K28 side chain: C20DA-gGlu-gGlu-gGlu-gGlu-gGlu-gGlu-eLys; C-terminal NH2) [Compound 72]	29.1 nM	149 nM	0.15 nM	2.87 nM	0.29 nM	2.12 nM
YXEGTFTSDYSIXLEKQAQXAFVEWLIKGGPSSPESLRHYYNWLTRQRY (Aib at 2, 13, 20; K28 side chain: C20DA-gGlu-gGlu-gGlu-gGlu-gGlu-gGlu-eLys; C-terminal NH2) [Compound 73]	32.2 nM	107 nM	0.19 nM	4.76 nM	0.11 nM	1.61 nM
YXEGTFTSDYSIXLEKQAQXAFVEWLIKGGPSSGASLRHYYNLXTRQRY (Aib at 2, 13, 20, 44; K28 side chain: C20DA-gGlu-gGlu-gGlu-gGlu-gGlu-gGlu-eLys; C-terminal NH2) [Compound 79]	87.6 nM	265 nM	0.11 nM	2.09 nM	0.29 nM	1.86 nM
YXEGTFTSDYSIXLEKEKQXAFVEWLIKGGPSSGASLRHYYNWLTRQRY (Aib at 2, 13, 20; K28 side chain: C20DA-gGlu-gGlu-gGlu-gGlu-gGlu-gGlu-eLys; C-terminal NH2) [Compound 69]	8.41 nM	26.6 nM	1.48 nM	27.8 nM	0.8 nM	2.95 nM
YXEGTFTSDYSIXLEKQAQXAFVEWLIKGGPSSGASLRHYYNWLTXQRY (Aib at 2, 13, 20; hArg 46; DTyr 49; K28 side chain: C20DA-gGlu-gGlu-gGlu-gGlu-gGlu-gGlu-eLys; C-terminal NH2) [Compound 71]	> 100 nM	> 1000 nM	0.14 nM	1.13 nM	0.13 nM	0.64 nM
YXEGTFTSDYSIXLEKQAQXAFVEWLIKGGPSSGASLRHYYNRXTRQRY (Aib at 2, 13, 20, 44; K28 side chain: C20DA-gGlu-gGlu-gGlu-gGlu-gGlu-gGlu-eLys; C-terminal NH2) [Compound 68]	53.9 nM	139 nM	0.12 nM	2.19 nM	0.32 nM	2.05 nM
YXEGTFTSDYSIXLEKQAQXAFVEWLIKGGPSSGASXRHYXNWLTRQRY (Aib at 2, 13, 20, 37, 41; K28 side chain: C20DA-gGlu-gGlu-Glu-gGlu-gGlu-gGlu-eLys; C-terminal NH2) [Compound 76]	31.5 nM	158 nM	0.1 nM	1.91 nM	0.2 nM	1.39 nM
